B1: His6-SUMO-tagged SH3 to PDZ domains of Shank2 (R520-D727), WT [not stated (human or rat cDNA cloned)] / synthetic peptide of the complete PDZ ligand of GKAP (last 15 amino acids of GKAP/SAPAP1) [not stated] (parent)
chain 1: RKLYSAVPGRLFVAVKPYQPQVDGEIPLHRGDRVKVLSIGEGGFWEGSARGHIGWFPAECVEEVQCKPRDSQAETRADRSKKLFRHYTVGSYDSFDTSSDCIIEEKTVVLQKKDNEGFGFVLRGAKADTPIEEFTPTPAFPALQYLESVDEGGVAWQAGLRTGDFLIEVNNENVVKVGHRQVVNMIRQGGNHLVLKVVTVTRNLDPDD
chain 2: ADSIEIYIPEAQTRL

Variants of: B1
Assay: ITC
Conditions: with synthetic peptide of the complete PDZ ligand of GKAP (last 15 amino acids of GKAP/SAPAP1); parent: 1

| Variant | ratio to parent |
| --- | --- |
| chain 1 S91Y | 2.8 |
| chain 1 V198F | 2.6 |
| chain 1 N171S | 1.3 |

From publication PMC11371640, “Structural deficits in key domains of Shank2 lead to alterations in postsynaptic nanoclusters and to a neurodevelopmental disorder in humans” (Molecular Psychiatry, 2022)
